# From patent publication US20260201038A1 (CELLABMED, published 2026)
# B1: G2D IgG (antibody, V domains shown)
# VH: QVQLVESGGGLVQPGGSLRLSCSASGFDFSSYPMVWVRQAPGKGLEYVSSINSGGSWTGYGAAVKGRATISRDNSKNTLYLQMNSLRAEDTATYYCARAYGAATIDAWGQGTTVTVSS
# VL: SYELTQPPSVSVSPGQTARITCSGGSIGYGWYQQKAPGQAPVTVIYYNDRRPSGIPERFSGSKSGTTNTLTISGVQAEDEADYYCGSADSSSTYTGIFGGGTKLTVL
# notes: The back-substitutions (L46T, S66K, V71N in VL); also called humanized 2D; G2D antibody
# How the values were obtained:
# [1] = biological target: B7-H3 on human cancer cells (human) (UniProt Q5ZPR3); experiment: flow cytometry on MDA-MB-231 breast cancer cells; control (secondary antibody only) < 5%
# B7-H4 = biological target: T1, B7-H4 (UniProt Q7Z7D3 25-258, limits assumed); experiment: indirect ELISA, B7-H4 coated at 1 ug/mL, absorbance at 450 nm
# T1 sequence (looked up): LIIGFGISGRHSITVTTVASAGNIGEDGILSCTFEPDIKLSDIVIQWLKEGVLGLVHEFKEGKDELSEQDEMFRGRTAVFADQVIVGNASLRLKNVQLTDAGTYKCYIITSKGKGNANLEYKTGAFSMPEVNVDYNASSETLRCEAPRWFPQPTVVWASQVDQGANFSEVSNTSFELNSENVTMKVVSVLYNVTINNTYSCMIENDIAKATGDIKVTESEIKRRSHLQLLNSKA
# Method: [The procedure below names another target; the source lists this target under the same test.] (§1) The binding ability of 2D IgG prepared in Example 2 for recombinant B7-H3 protein was investigated by indirect ELISA. For indirect ELISA, recombinant human 4lg B7-H3, recombinant human 2lg B7-H3 and recombinant mouse B7-H3 were diluted respectively to 1 μg/mL in 50 μL of PBS and adsorbed overnight onto a 96-well immunoplate (Corning, USA) by storing at 4° C. After reaction with a buffer solution containing 3% bovine serum albumin at room temperature for 1 hour, followed by washing 3 times with a buffer solution containing 0.5% Tween 20, each well was treated with 50 μL of the antibodies diluted serially (0.0001, 0.0003, 0.001, 0.003, 0.01, 0.03, 0.1, 0.3, 1, 3 and 10 nM). For antigen-antibody binding, the mixture was reacted at room temperature for 2 hours, and then washed 3 times with a buffer solution containing 0.5% Tween 20. After treating each well with 50 μL of anti-human immunoglobulin Fc-HRP antibodies (Jackson Immunoresearch, USA) diluted to 1:3,000, reaction was conducted at room temperature for 1 hour. […] As a result of measuring absorbance at 450 nm using a spectrophotometer (Biotek, USA), it was confirmed that 2D IgG binds to B7-H3, and the binding ability was in the order of 4lg B7-H3, 2lg B7-H3 and mouse B7-H3 (FIG. 2a). […]
# B7-H1 = B7-H1 (UniProt Q9NZQ7 19-239); experiment: indirect ELISA, B7-H1 coated at 1 ug/mL, absorbance at 450 nm
# Method: [The procedure below names another target; the source lists this target under the same test.] as §1
# [2] = biological target: mouse B7-H3 expressed on Raji cells (mouse) (UniProt Q8VE98); experiment: flow cytometry on Raji cells expressing mouse B7-H3; the vector control Raji cells show < 10%
# [3] = biological target: B7-H3 on human cancer cells (human) (UniProt Q5ZPR3); experiment: flow cytometry on A2780 ovarian cancer cells; control (secondary antibody only) < 5%
# [4] = biological target: B7-H3 on human cancer cells (human) (UniProt Q5ZPR3); experiment: flow cytometry on HCT116 colorectal cancer cells; control (secondary antibody only) < 25%
# QRSPTGAVEVQVPED = biological target: T2, QRSPTGAVEVQVPED; experiment: peptide microarray, 15-mers of human 4Ig B7-H3; panel Ig-like-V type 2
# T2 construct: 15-mer of human 4Ig B7-H3 on the peptide microarray, panel Ig-like-V type 2
# T2 peptide: QRSPTGAVEVQVPED
# Method: (§2) It was confirmed that G2D IgG has linear epitopes since G2D was verified to recognize 4lg B7-H3 through western blot (FIG. 10a). Therefore, linear epitope mapping was conducted by Pepperprint GmbH (Germany). After preparing a peptide microarray from the 15 4lg B7-H3 amino acids with 14-amino acid overlaps, the antibodies binding to peptides were identified using secondary antibodies (FIG. 10b). As a result, it was confirmed that G2D IgG binds to a peptide having a sequence of EVQVP (FIG. 10c). EVQVP is located in the Ig-like V-type1 and Ig-like V-type2 domains of 4lg B7-H3 (FIGS. 10d and 10e). When the epitopes of the control antibody enoblituzumab were identified by the same method, it was confirmed that the epitopes include the sequence of GYPEAE (FIG. 10b), and GYPEAE is located in the Ig-like C2-type1 and Ig-like C2-type2 domains of 4lg B7-H3 (FIGS. 10d and 10e). As a result, it was confirmed that G2D IgG and the control antibody enoblituzumab have different epitopes.
# RSPTGAVEVQVPEDP = biological target: T3, RSPTGAVEVQVPEDP; experiment: as above
# T3 construct: 15-mer of human 4Ig B7-H3 on the peptide microarray, panel Ig-like-V type 2
# T3 peptide: RSPTGAVEVQVPEDP
# Method: as §2
# GAVEVQVPEDPVVAL = biological target: T4, GAVEVQVPEDPVVAL; experiment: as above
# T4 construct: 15-mer of human 4Ig B7-H3 on the peptide microarray, panel Ig-like-V type 2
# T4 peptide: GAVEVQVPEDPVVAL
# Method: as §2
# TGAVEVQVPEDPVVA = biological target: T5, TGAVEVQVPEDPVVA; experiment: as above
# T5 construct: 15-mer of human 4Ig B7-H3 on the peptide microarray, panel Ig-like-V type 2
# T5 peptide: TGAVEVQVPEDPVVA
# Method: as §2
# TPQRSPTGAVEVQVP = biological target: T6, TPQRSPTGAVEVQVP; experiment: as above
# T6 construct: 15-mer of human 4Ig B7-H3 on the peptide microarray, panel Ig-like-V type 2
# T6 peptide: TPQRSPTGAVEVQVP
# Method: as §2
# SPTGAVEVQVPEDPV = biological target: T7, SPTGAVEVQVPEDPV; experiment: as above
# T7 construct: 15-mer of human 4Ig B7-H3 on the peptide microarray, panel Ig-like-V type 2
# T7 peptide: SPTGAVEVQVPEDPV
# Method: as §2
# PTGAVEVQVPEDPVV = biological target: T8, PTGAVEVQVPEDPVV; experiment: as above
# T8 construct: 15-mer of human 4Ig B7-H3 on the peptide microarray, panel Ig-like-V type 2
# T8 peptide: PTGAVEVQVPEDPVV
# Method: as §2
# PQRSPTGAVEVQVPE = biological target: T9, PQRSPTGAVEVQVPE; experiment: as above
# T9 construct: 15-mer of human 4Ig B7-H3 on the peptide microarray, panel Ig-like-V type 2
# T9 peptide: PQRSPTGAVEVQVPE
# Method: as §2
# VEVQVPEDPVVALVG = biological target: T10, VEVQVPEDPVVALVG; experiment: as above
# T10 construct: 15-mer of human 4Ig B7-H3 on the peptide microarray, panel Ig-like-V type 2
# T10 peptide: VEVQVPEDPVVALVG
# Method: as §2
# Sequence of mouse B7-H3 expressed on Raji cells (mouse) (Q8VE98 other isoform, or with tags, fused parts or gaps, form in doubt): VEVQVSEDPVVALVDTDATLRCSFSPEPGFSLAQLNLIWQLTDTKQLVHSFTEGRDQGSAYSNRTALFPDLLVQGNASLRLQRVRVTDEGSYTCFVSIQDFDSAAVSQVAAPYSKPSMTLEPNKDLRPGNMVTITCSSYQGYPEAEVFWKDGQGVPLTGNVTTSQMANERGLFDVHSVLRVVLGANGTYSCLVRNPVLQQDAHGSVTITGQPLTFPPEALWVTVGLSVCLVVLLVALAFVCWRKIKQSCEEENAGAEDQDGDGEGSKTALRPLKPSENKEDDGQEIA
# Sequence of B7-H1 (Q9NZQ7 19-239 limits assumed): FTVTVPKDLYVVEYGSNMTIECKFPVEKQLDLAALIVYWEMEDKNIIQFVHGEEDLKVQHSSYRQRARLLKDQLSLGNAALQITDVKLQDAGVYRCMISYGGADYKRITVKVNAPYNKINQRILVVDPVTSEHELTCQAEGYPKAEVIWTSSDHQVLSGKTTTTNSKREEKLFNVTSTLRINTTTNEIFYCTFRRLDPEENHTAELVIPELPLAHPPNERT
binder,measurement,setting,value
B1,% of cells in the positive gate,[1],> 95%
same,binding result,B7-H4,no binding (tested: 10 nM)
same,binding result,B7-H1,no binding (tested: 10 nM)
same,% of cells in the positive gate (P5),[2],> 95%
same,% of cells in the positive gate,[3],> 95%
same,% of cells in the positive gate,[4],> 95%
same,fluorescence intensity of the peptide spot,QRSPTGAVEVQVPED,80
same,fluorescence intensity of the peptide spot,RSPTGAVEVQVPEDP,120
same,fluorescence intensity of the peptide spot,GAVEVQVPEDPVVAL,95
same,fluorescence intensity of the peptide spot,TGAVEVQVPEDPVVA,84.5
same,fluorescence intensity of the peptide spot,TPQRSPTGAVEVQVP,89.3
same,fluorescence intensity of the peptide spot,SPTGAVEVQVPEDPV,94.8
same,fluorescence intensity of the peptide spot,PTGAVEVQVPEDPVV,142
same,fluorescence intensity of the peptide spot,PQRSPTGAVEVQVPE,92.3
same,fluorescence intensity of the peptide spot,VEVQVPEDPVVALVG,92.5
